In patent CN117700537A one finds OD450 data, which are given here for one substance.

This assay addresses 非洲马瘟病毒VP7重组蛋白 (AHSV VP7重组蛋白, 原核表达) (African horse sickness virus (非洲马瘟病毒)). The assay can be described thus: indirect ELISA, negative control on coated VP7 recombinant protein (0.5 μg/mL).

Take 阴性对照 (阴性抗体, 表2) (antibody): the OD450 was found to be 0.0655 OD450.
